For twelve sequences, Kd results are on record in patent US6177557.

In one data set the target is thrombin (alpha) (human) (UniProt P00734+P00734). Briefly: filter.
In data set [1] the target is basic fibroblast growth factor (bFGF) (UniProt P09038). Briefly: filter.
The mark [2] stands for this setting: bulk pool, text also says after 12 rounds, apparently unselected.

basic fibroblast growth factor (bFGF), sequence (P09038 135-288): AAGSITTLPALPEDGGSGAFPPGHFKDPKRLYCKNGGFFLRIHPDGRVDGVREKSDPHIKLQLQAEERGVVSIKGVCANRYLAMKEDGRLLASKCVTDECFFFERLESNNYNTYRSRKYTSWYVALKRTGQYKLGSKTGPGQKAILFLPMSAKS

Sequence “AGATGCCTGTCGAGCATGCTNGTAGCTAAACTGCTTTGTCGACGGG [30N DNA pool after SELEX]” yielded a Kd with thrombin (alpha) (human) (pool after 12 rounds) of 8 nM.

With “AGATGCCTGTCGAGCATGCTNGTAGCTAAACTGCTTTGTCGACGGG [60N DNA pool after SELEX]”, the Kd with thrombin (alpha) (human) (pool after 12 rounds) is 8 nM.

“AGATGCCTGTCGAGCATGCTNGTAGCTAAACTGCTTTGTCGACGGG [bulk 30N DNA]”: in the data set with thrombin (alpha) (human) (setting [2]), the Kd turned out to be 8000 nM.

As to “AGATGCCTGTCGAGCATGCTNGTAGCTAAACTGCTTTGTCGACGGG [bulk 60N DNA]”, in the data set with thrombin (alpha) (human) (setting [2]), the Kd was found to be 5000 nM.

As for “GGGAGACAAGAAUAACGCUCAANNNNNNNNNNNNNNNNNNNNNNNNNNNNNNUUCGACAGGAGGCUCACAACAGGC [2'-NH2 starting random RNA A]”, in data set [1] (2'-NH2 pyrimidines, unselected pool, +/-11), the Kd turned out to be 65 nM.

In turn, “GGGAGAUGCCUGUCGAGCAUGCUGNNNNNNNNNNNNNNNNNNNNNNNNNNNNNNGUAGCUAAACAGCUUUGUCGACGGG [random RNA B (unmodified)]” showed a Kd in data set [1] (unselected pool, PBS, 37 C) of 560 nM.

Consider “GGGAGCUCAGAAUAAACGCUCAANNNNNNNNNNNNNNNNNNNNNNNNNNNNNNUUCGACAUGAGGCCCGGAUCCGGC [random RNA A (unmodified)]”, for which the Kd in data set [1] (unselected pool, PBS, 37 C) came out at 300 nM.

As to “GGGAGGACGATGCGGGGGGCTATGCGATACAGTCGCGNTANGCTAGGCGCAGACGAGCGGGA [m26]”, the Kd in data set [1] (PBS) is 1.6 nM.

The sequence “GGGAGGACGATGCGGNCAGACGACGACGGGGA [DNA SELEX pool Experiment 3 round 10]” gave a Kd in data set [1] (round 10 pool) of 2.5 nM.

“GGGAGGACGATGCGGNCAGACGACGACGGGGA [DNA SELEX pool Experiment 3 round 11]”: the Kd in data set [1] (round 11 pool) amounted to 4 nM.

“GGGAGGACGATGCGGNCAGACGACGACGGGGA [DNA random pool 30N7.1PS (round 0)]” displayed a Kd in data set [1] (round 0 pool) of 300 nM.

For “GGGAGGACGAUGCGGNNNNNNNNNNNNNNNNNNNNNNNNNNNNNNNNNNNNNNNNNNNNNNNNNNCAGACGACUCGCCCGA [2'-NH2 starting random RNA B]”, the Kd in data set [1] (2'-NH2 pyrimidines, unselected pool, +/-140) is 240 nM.
